According to paper PMC3412936:

Columns and labels:
Experiment in all cases: ITC
[1] = molecular target: WW1 domain (residues 16-50) of human WWOX (human) (UniProt Q9NZC7)
[2] = molecular target: engineered WW1-WW2rw tandem domains of WWOX (human) (UniProt Q9NZC7)
[3] = molecular target: WW1-WW2 tandem domains (residues 16-91) of human WWOX (human) (UniProt Q9NZC7)
[4] = molecular target: WW2_E66R mutant of the WW2 domain of WWOX (human) (UniProt Q9NZC7)
[5] = molecular target: WW1_R25A mutant of the WW1 domain of WWOX (human) (UniProt Q9NZC7)
[6] = molecular target: WW1_R25E mutant of the WW1 domain of WWOX (human) (UniProt Q9NZC7)
[7] = molecular target: WW2 domain (residues 57-91) of human WWOX (human) (UniProt Q9NZC7)
[8] = molecular target: WW2_Y85W mutant of the WW2 domain of WWOX (human) (UniProt Q9NZC7)
[9] = molecular target: engineered WW2_RW domain of WWOX (E66R/Y85W double-mutant of WW2 domain) (human) (UniProt Q9NZC7)
[10] = molecular target: WW1_W44Y mutant of the WW1 domain of WWOX (human) (UniProt Q9NZC7)
Sequence of WW1_W44Y mutant of the WW1 domain of WWOX (human) (Q9NZC7 16-50 W44Y): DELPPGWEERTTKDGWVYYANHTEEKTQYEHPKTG

Sequence of WW1 domain (residues 16-50) of human WWOX (human) (Q9NZC7 16-50): as the sequence (Q9NZC7 16-50 W44Y) above, with Y29W counted along it
Sequence of WW1-WW2 tandem domains (residues 16-91) of human WWOX (human) (Q9NZC7 16-91): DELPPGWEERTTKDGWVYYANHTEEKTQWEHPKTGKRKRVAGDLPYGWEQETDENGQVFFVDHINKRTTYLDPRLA
Sequence of engineered WW1-WW2rw tandem domains of WWOX (human) (Q9NZC7 16-91 E66R/Y85W): as the sequence (Q9NZC7 16-91) above, with E51R, Y70W counted along it
Sequence of engineered WW2_RW domain of WWOX (E66R/Y85W double-mutant of WW2 domain) (human) (Q9NZC7 57-91 E66R/Y85W): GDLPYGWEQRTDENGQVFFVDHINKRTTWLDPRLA
Sequence of WW1_R25E mutant of the WW1 domain of WWOX (human) (Q9NZC7 16-50 R25E): as the sequence (Q9NZC7 16-50 W44Y) above, with R10E, Y29W counted along it
Sequence of WW2 domain (residues 57-91) of human WWOX (human) (Q9NZC7 57-91): as the sequence (Q9NZC7 57-91 E66R/Y85W) above, with R10E, W29Y counted along it
Sequence of WW2_E66R mutant of the WW2 domain of WWOX (human) (Q9NZC7 57-91 E66R): as the sequence (Q9NZC7 57-91 E66R/Y85W) above, with W29Y counted along it
Sequence of WW2_Y85W mutant of the WW2 domain of WWOX (human) (Q9NZC7 57-91 Y85W): as the sequence (Q9NZC7 57-91 E66R/Y85W) above, with R10E counted along it
Sequence of WW1_R25A mutant of the WW1 domain of WWOX (human) (Q9NZC7 16-50 R25A): as the sequence (Q9NZC7 16-50 W44Y) above, with R10A, Y29W counted along it

Q: Which Kd [1] does the source give for “PY3_P-2A alanine mutant of the WBP2_PY3 peptide” here?
A: Its Kd is 250 µM.

Q: What about the dH [1] of the same substance?
A: The dH was -18 kcal/mol.

Q: What does the source list for “PY3_Q-3A alanine mutant of the WBP2_PY3 peptide”?
A: Kd [1]: 149 µM; dH [1]: -12.4 kcal/mol

Q: With “PY3_Y+3A alanine mutant of the WBP2_PY3 peptide” as the substance, how does the Kd [1] read?
A: Its Kd is 554 µM.

Q: And the dH [1]?
A: The dH was -4.95 kcal/mol.

Q: With “PY3_Y+4A alanine mutant of the WBP2_PY3 peptide” as the substance, how does the Kd [1] read?
A: The Kd was 229 µM.

Q: And the dH [1]?
A: The dH was -8.35 kcal/mol.

Q: Which results are given for “WBP2_PY3 peptide (12-mer spanning the PY3 PPXY motif of human WBP2)”?
A: Kd [2]: 59 µM; dH [2]: -8.02 kcal/mol; Kd [3]: 49 µM; dH [3]: -8.46 kcal/mol; stoichiometry N [3]: 1.05; Kd [1]: 122 µM; dH [1]: -12.6 kcal/mol; Kd [4]: > 1000 µM; Kd [5]: > 1000 µM; Kd [6]: > 1000 µM; Kd [7]: > 1000 µM; Kd [8]: > 1000 µM; Kd [9]: 91 µM; dH [9]: -5.2 kcal/mol; Kd [10]: > 1000 µM
